Test results: patent publication US20110287512

What follows are sequences tested on ZFP7264 linker 1e center linker F2-F3 TGSQKP replaced by TVPRPTPPKP (artificial) (assay: ELONA). Conditions: normalized ELISA score.

| Sequence | binding signal |
| --- | --- |
| TTAGTTAAAGCGCGCTCCGAATATC (double strand) [7264 target gap C] | 1.02 |
| TTAGTTAAAGCGGGCTCCGAATATC (double strand) [7264 target gap G] | 1.58 |

What follows are sequences tested on ZFP8196 linker 1f center linker F2-F3 TGEKP replaced by TYPRPIAAKP (artificial) (assay: ELONA). Conditions: normalized ELISA score.

| Sequence | binding signal |
| --- | --- |
| TTAGATAAACTGGCAAAAGGCTATC (double strand) [8196 target gap G] | 0.65 |
| TTAGATAAACTGACAAAAGGCTATC (double strand) [8196 target gap A] | 0.41 |
| TTAGATAAACTGCCAAAAGGCTATC (double strand) [8196 target gap C] | 0.14 |

The sequences below were run on ZFP8196 linker TVSPAPCRSKP (artificial) (assay: not given). Conditions: not given.

| Sequence | binding signal (normalized ELISA) |
| --- | --- |
| TTAGATAAACTGGCAAAAGGCTATC (double strand) [8196 target gap G] | 0.14 |
| TTAGATAAACTGACAAAAGGCTATC (double strand) [8196 target gap A] | 0.03 |
| TTAGATAAACTGCCAAAAGGCTATC (double strand) [8196 target gap C] | 0.01 |

What follows are sequences tested on ZFP8196 linker TPDRPISTCKP (artificial) (assay: not given). Conditions: not given.

| Sequence | binding signal (normalized ELISA) |
| --- | --- |
| TTAGATAAACTGGCAAAAGGCTATC (double strand) [8196 target gap G] | 0.29 |
| TTAGATAAACTGACAAAAGGCTATC (double strand) [8196 target gap A] | 0.11 |
| TTAGATAAACTGCCAAAAGGCTATC (double strand) [8196 target gap C] | 0.05 |

The sequences below were run on ZFP8196 linker TGYSIPRPKP (artificial) (assay: not given). Conditions: not given.

| Sequence | binding signal (normalized ELISA) |
| --- | --- |
| TTAGATAAACTGGCAAAAGGCTATC (double strand) [8196 target gap G] | 0.43 |
| TTAGATAAACTGACAAAAGGCTATC (double strand) [8196 target gap A] | 0.13 |
| TTAGATAAACTGCCAAAAGGCTATC (double strand) [8196 target gap C] | 0.06 |

Each sequence was assayed on ZFP8196 linker 1d (artificial) (assay: not given). Conditions: not given.

| Sequence | binding signal (normalized ELISA) |
| --- | --- |
| TTAGATAAACTGGCAAAAGGCTATC (double strand) [8196 target gap G] | 0.52 |
| TTAGATAAACTGACAAAAGGCTATC (double strand) [8196 target gap A] | 0.23 |
| TTAGATAAACTGCCAAAAGGCTATC (double strand) [8196 target gap C] | 0.09 |

What follows are sequences tested on ZFP8196 (host, center linker TGEKP) (artificial) (assay: not given). Conditions: not given.

| Sequence | binding signal (normalized ELISA) |
| --- | --- |
| TTAGATAAACTGGCAAAAGGCTATC (double strand) [8196 target gap G] | 0.03 |
| TTAGATAAACTGACAAAAGGCTATC (double strand) [8196 target gap A] | 0.01 |
| TTAGATAAACTGCCAAAAGGCTATC (double strand) [8196 target gap C] | 0.01 |

These sequences were tested on ZFP8196 linker TPGLHRPKP (artificial) (assay: not given). Conditions: not given.

| Sequence | binding signal (normalized ELISA) |
| --- | --- |
| TTAGATAAACTGGCAAAAGGCTATC (double strand) [8196 target gap G] | 0.65 |
| TTAGATAAACTGACAAAAGGCTATC (double strand) [8196 target gap A] | 0.19 |
| TTAGATAAACTGCCAAAAGGCTATC (double strand) [8196 target gap C] | 0.1 |

Each sequence was assayed on ZFP8196 linker TPSHTPRPKP (artificial) (assay: not given). Conditions: not given.

| Sequence | binding signal (normalized ELISA) |
| --- | --- |
| TTAGATAAACTGGCAAAAGGCTATC (double strand) [8196 target gap G] | 0.84 |
| TTAGATAAACTGACAAAAGGCTATC (double strand) [8196 target gap A] | 0.3 |
| TTAGATAAACTGCCAAAAGGCTATC (double strand) [8196 target gap C] | 0.13 |

These sequences were tested on ZFP8196 linker TSPRLPAPKP (artificial) (assay: not given). Conditions: not given.

| Sequence | binding signal (normalized ELISA) |
| --- | --- |
| TTAGATAAACTGGCAAAAGGCTATC (double strand) [8196 target gap G] | 0.62 |
| TTAGATAAACTGACAAAAGGCTATC (double strand) [8196 target gap A] | 0.26 |
| TTAGATAAACTGCCAAAAGGCTATC (double strand) [8196 target gap C] | 0.14 |

These sequences were tested on ZFP8196 linker TGGGGSQKP (artificial) (assay: not given). Conditions: not given.

| Sequence | binding signal (normalized ELISA) |
| --- | --- |
| TTAGATAAACTGGCAAAAGGCTATC (double strand) [8196 target gap G] | 0 |
| TTAGATAAACTGACAAAAGGCTATC (double strand) [8196 target gap A] | 0 |
| TTAGATAAACTGCCAAAAGGCTATC (double strand) [8196 target gap C] | 0 |

These sequences were tested on ZFP8196 linker TPDAPKPKP (artificial) (assay: not given). Conditions: not given.

| Sequence | binding signal (normalized ELISA) |
| --- | --- |
| TTAGATAAACTGGCAAAAGGCTATC (double strand) [8196 target gap G] | 0.68 |
| TTAGATAAACTGACAAAAGGCTATC (double strand) [8196 target gap A] | 0.16 |
| TTAGATAAACTGCCAAAAGGCTATC (double strand) [8196 target gap C] | 0.13 |

What follows are sequences tested on ZFP8196 linker LRQKDERP (artificial) (assay: not given). Conditions: not given.

| Sequence | binding signal (normalized ELISA) |
| --- | --- |
| TTAGATAAACTGGCAAAAGGCTATC (double strand) [8196 target gap G] | 0.04 |
| TTAGATAAACTGACAAAAGGCTATC (double strand) [8196 target gap A] | 0.01 |
| TTAGATAAACTGCCAAAAGGCTATC (double strand) [8196 target gap C] | 0.01 |

These sequences were tested on ZFP8196 linker TSSPRSNAKP (artificial) (assay: not given). Conditions: not given.

| Sequence | binding signal (normalized ELISA) |
| --- | --- |
| TTAGATAAACTGGCAAAAGGCTATC (double strand) [8196 target gap G] | 0.2 |
| TTAGATAAACTGACAAAAGGCTATC (double strand) [8196 target gap A] | 0.05 |
| TTAGATAAACTGCCAAAAGGCTATC (double strand) [8196 target gap C] | 0.02 |

Each sequence was assayed on ZFP8196 linker TGEGGKP (artificial) (assay: not given). Conditions: not given.

| Sequence | binding signal (normalized ELISA) |
| --- | --- |
| TTAGATAAACTGGCAAAAGGCTATC (double strand) [8196 target gap G] | 0.03 |
| TTAGATAAACTGACAAAAGGCTATC (double strand) [8196 target gap A] | 0 |
| TTAGATAAACTGCCAAAAGGCTATC (double strand) [8196 target gap C] | 0 |

The sequences below were run on ZFP8196 linker TCPRPPTRKP (artificial) (assay: not given). Conditions: not given.

| Sequence | binding signal (normalized ELISA) |
| --- | --- |
| TTAGATAAACTGGCAAAAGGCTATC (double strand) [8196 target gap G] | 0.48 |
| TTAGATAAACTGACAAAAGGCTATC (double strand) [8196 target gap A] | 0.18 |
| TTAGATAAACTGCCAAAAGGCTATC (double strand) [8196 target gap C] | 0.05 |

Each sequence was assayed on ZFP8196 linker 1c (artificial) (assay: not given). Conditions: not given.

| Sequence | binding signal (normalized ELISA) |
| --- | --- |
| TTAGATAAACTGGCAAAAGGCTATC (double strand) [8196 target gap G] | 0.57 |
| TTAGATAAACTGACAAAAGGCTATC (double strand) [8196 target gap A] | 0.2 |
| TTAGATAAACTGCCAAAAGGCTATC (double strand) [8196 target gap C] | 0.09 |

These sequences were tested on ZFP8196 linker TEPRAKPPKP (artificial) (assay: not given). Conditions: not given.

| Sequence | binding signal (normalized ELISA) |
| --- | --- |
| TTAGATAAACTGGCAAAAGGCTATC (double strand) [8196 target gap G] | 0.78 |
| TTAGATAAACTGACAAAAGGCTATC (double strand) [8196 target gap A] | 0.39 |
| TTAGATAAACTGCCAAAAGGCTATC (double strand) [8196 target gap C] | 0.17 |

These sequences were tested on ZFP7264 linker TGGGGSQKP (artificial) (assay: not given). Conditions: not given.

| Sequence | binding signal (normalized ELISA) |
| --- | --- |
| TTAGTTAAAGCGCGCTCCGAATATC (double strand) [7264 target gap C] | 0.04 |
| TTAGTTAAAGCGGGCTCCGAATATC (double strand) [7264 target gap G] | 0.08 |

These sequences were tested on ZFP7264 linker TLPLPRPKP (artificial) (assay: not given). Conditions: not given.

| Sequence | binding signal (normalized ELISA) |
| --- | --- |
| TTAGTTAAAGCGCGCTCCGAATATC (double strand) [7264 target gap C] | 0.25 |
| TTAGTTAAAGCGGGCTCCGAATATC (double strand) [7264 target gap G] | 0.85 |

What follows are sequences tested on ZFP7264 (host, center linker TGSQKP) (artificial) (assay: not given). Conditions: not given.

| Sequence | binding signal (normalized ELISA) |
| --- | --- |
| TTAGTTAAAGCGCGCTCCGAATATC (double strand) [7264 target gap C] | 0 |
| TTAGTTAAAGCGGGCTCCGAATATC (double strand) [7264 target gap G] | 0 |

The sequences below were run on ZFP7264 linker TSRPRPKP (artificial) (assay: not given). Conditions: not given.

| Sequence | binding signal (normalized ELISA) |
| --- | --- |
| TTAGTTAAAGCGCGCTCCGAATATC (double strand) [7264 target gap C] | 0.22 |
| TTAGTTAAAGCGGGCTCCGAATATC (double strand) [7264 target gap G] | 0.77 |

The sequences below were run on ZFP7264 linker LRQKDERP (artificial) (assay: not given). Conditions: not given.

| Sequence | binding signal (normalized ELISA) |
| --- | --- |
| TTAGTTAAAGCGCGCTCCGAATATC (double strand) [7264 target gap C] | 0.03 |
| TTAGTTAAAGCGGGCTCCGAATATC (double strand) [7264 target gap G] | 0.06 |

What follows are sequences tested on ZFP7264 linker TGLPKPKP (artificial) (assay: not given). Conditions: not given.

| Sequence | binding signal (normalized ELISA) |
| --- | --- |
| TTAGTTAAAGCGCGCTCCGAATATC (double strand) [7264 target gap C] | 0.11 |
| TTAGTTAAAGCGGGCTCCGAATATC (double strand) [7264 target gap G] | 0.38 |

These sequences were tested on ZFP7264 linker TLPPCFRPKP (artificial) (assay: not given). Conditions: not given.

| Sequence | binding signal (normalized ELISA) |
| --- | --- |
| TTAGTTAAAGCGCGCTCCGAATATC (double strand) [7264 target gap C] | 0.25 |
| TTAGTTAAAGCGGGCTCCGAATATC (double strand) [7264 target gap G] | 0.77 |

The sequences below were run on ZFP7264 linker TGEGGKP (artificial) (assay: not given). Conditions: not given.

| Sequence | binding signal (normalized ELISA) |
| --- | --- |
| TTAGTTAAAGCGCGCTCCGAATATC (double strand) [7264 target gap C] | 0.03 |
| TTAGTTAAAGCGGGCTCCGAATATC (double strand) [7264 target gap G] | 0.05 |

What follows are sequences tested on ZFP7264 linker TKHGTPKHREDKP (artificial) (assay: not given). Conditions: not given.

| Sequence | binding signal (normalized ELISA) |
| --- | --- |
| TTAGTTAAAGCGCGCTCCGAATATC (double strand) [7264 target gap C] | 0.01 |
| TTAGTTAAAGCGGGCTCCGAATATC (double strand) [7264 target gap G] | 0.01 |
